In US20170210805A1 (published 2017):

B1: HL161BK antibody Fab fragment (Fab, V domains shown)
VH: QLLLQESGPGLVKPSETLSLTCTVSGGSLSSSFSYWVWIRQPPGKGLEWIGTIYYSGNTYYNPSLKSRLTISVDTSKNHFSLKLSSVTAADTAVYYCARRAGILTGYLDSWGQGTLVTVSS
VL: SYVLTQSPSVSVAPGQTARITCGGNNIGSKSVHWYQQKPGQAPVLVVYDDSDRPSGIPERFSASNSGNTATLTISRVEAGDEADYYCQVWDSSSDHVVFGGGTKLTVLGQPKAAPSVTL
notes: HL161BK is HL161B with asparagine (N) at position 83 of the heavy-chain variable framework replaced by lysine (K); It was used as a Fab in the crystal; also called HL161BK Fab

Columns and labels:
[1] = biological target: water-soluble hFcRn (human) (UniProt P55899); assay: SPR (Proteon XPR36), shFcRn immobilized on GLC chip, hIgG1 as analyte, pH 6.0
Sequence of water-soluble hFcRn (human) (P55899 24-297 limits assumed, chain 1 of 2): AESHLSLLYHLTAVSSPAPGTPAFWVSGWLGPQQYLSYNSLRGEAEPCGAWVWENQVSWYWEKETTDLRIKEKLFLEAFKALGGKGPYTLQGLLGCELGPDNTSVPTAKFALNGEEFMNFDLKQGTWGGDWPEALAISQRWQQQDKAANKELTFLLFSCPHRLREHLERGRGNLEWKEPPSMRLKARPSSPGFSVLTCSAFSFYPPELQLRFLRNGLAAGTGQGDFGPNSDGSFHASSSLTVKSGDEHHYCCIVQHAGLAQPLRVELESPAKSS
Sequence of water-soluble hFcRn (human) (b2m, as listed by the source limits assumed, chain 2 of 2): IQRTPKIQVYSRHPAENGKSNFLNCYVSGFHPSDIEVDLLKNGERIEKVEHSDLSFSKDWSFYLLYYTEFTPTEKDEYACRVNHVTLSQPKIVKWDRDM

[2] = biological target: T1, human FcRn (co-crystal with HL161BK Fab) (human, UniProt P55899 24-297; P61769 21-119); assay: X-ray co-crystal structure at 2.4 Å
T1 construct: also called hFcRn
T1 sequence (P55899 24-297 limits assumed, chain 1 of 2): as the sequence (P55899 24-297 limits assumed, chain 1 of 2) above
T1 sequence (P61769 21-119 limits assumed, chain 2 of 2): as the sequence (b2m, as listed by the source limits assumed, chain 2 of 2) above
Text: There are two copies each of hFcRn and HL161BK Fab per asymmetric unit. […] A data set was collected at ESRF beamline ID30A-1.

Molecule | Kd [1] [nM] | koff [1] [s⁻¹] | kon [1] [M⁻¹ s⁻¹] | binding result [2]
hIgG1 (antibody) | 1.4 | 0.00046 | 320000 | 
B1 |  |  |  | binds
